{
  "source": "paper PMC10942606",
  "binders": {"B1": {"name": "40 bp dsDNA, Alexa488 (dsDNA)", "DNA 1": "ATCAATATCCACCTGCAGATACTACCAAAAGTGTATTTGG", "DNA 2": "CCAAATACACTTTTGGTAGTATCTGCAGGTGGATATTGAT"}},
  "experiment_in_all_cases": "MST",
  "key": {"Pcf1-PIP*;Pcf2;Pcf3": {"target": "T1, Pcf1-PIP*;Pcf2;Pcf3 (Schizosaccharomyces …, UniProt Q1MTN9;O13985;Q9Y825 1-544;1-512;1-408, Q172A;L175A;F178A;F179A||)", "T1 sequence 1": "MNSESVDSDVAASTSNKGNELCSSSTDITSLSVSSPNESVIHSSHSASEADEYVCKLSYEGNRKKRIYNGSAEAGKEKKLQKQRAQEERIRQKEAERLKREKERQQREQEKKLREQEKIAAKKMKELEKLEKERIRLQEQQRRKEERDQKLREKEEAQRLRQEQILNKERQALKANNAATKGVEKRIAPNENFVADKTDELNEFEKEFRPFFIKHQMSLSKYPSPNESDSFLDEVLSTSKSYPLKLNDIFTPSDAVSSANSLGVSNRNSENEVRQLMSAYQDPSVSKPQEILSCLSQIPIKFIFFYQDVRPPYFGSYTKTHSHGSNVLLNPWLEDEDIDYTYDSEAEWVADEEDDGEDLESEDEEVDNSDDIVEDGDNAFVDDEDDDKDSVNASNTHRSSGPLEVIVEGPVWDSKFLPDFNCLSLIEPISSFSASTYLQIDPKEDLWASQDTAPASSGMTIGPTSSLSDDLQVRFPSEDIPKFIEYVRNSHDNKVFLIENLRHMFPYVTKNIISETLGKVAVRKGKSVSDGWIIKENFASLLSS", "T1 sequence 2": "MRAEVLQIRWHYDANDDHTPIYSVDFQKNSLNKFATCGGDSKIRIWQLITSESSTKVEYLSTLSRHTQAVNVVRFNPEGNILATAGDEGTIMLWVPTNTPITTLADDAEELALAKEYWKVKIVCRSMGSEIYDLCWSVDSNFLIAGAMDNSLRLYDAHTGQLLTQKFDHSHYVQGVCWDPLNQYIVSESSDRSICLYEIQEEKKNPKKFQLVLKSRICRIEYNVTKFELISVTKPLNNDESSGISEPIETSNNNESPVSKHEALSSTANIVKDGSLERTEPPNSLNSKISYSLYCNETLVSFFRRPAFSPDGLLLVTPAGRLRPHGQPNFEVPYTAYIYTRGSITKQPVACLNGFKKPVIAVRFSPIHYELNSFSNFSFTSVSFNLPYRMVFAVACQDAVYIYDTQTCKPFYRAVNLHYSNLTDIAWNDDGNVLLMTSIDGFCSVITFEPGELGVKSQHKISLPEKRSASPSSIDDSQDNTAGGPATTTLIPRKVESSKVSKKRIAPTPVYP", "T1 sequence 3": "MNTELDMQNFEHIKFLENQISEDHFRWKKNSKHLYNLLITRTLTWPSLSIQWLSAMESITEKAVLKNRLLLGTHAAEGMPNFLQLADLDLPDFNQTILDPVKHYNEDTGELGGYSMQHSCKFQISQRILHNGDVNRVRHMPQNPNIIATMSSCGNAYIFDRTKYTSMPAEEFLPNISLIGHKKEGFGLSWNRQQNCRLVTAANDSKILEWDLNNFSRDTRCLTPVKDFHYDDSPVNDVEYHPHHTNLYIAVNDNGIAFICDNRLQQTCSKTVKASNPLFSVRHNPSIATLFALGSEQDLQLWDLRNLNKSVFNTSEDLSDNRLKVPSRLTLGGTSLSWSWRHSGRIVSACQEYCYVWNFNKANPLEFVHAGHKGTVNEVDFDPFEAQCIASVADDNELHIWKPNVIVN"}, "Pcf1_WHD": {"target": "T2, Pcf1_WHD (Schizosaccharomyces pombe, UniProt Q1MTN9 471-544)", "T2 sequence": "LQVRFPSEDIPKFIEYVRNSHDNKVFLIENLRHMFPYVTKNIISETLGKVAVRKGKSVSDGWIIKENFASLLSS"}, "Pcf1-ΔWHD;Pcf2;Pcf3": {"target": "T3, Pcf1-ΔWHD;Pcf2;Pcf3 (Schizosaccharomyces …, UniProt Q1MTN9;O13985;Q9Y825 1-470;1-512;1-408, del471-544||)", "T3 sequence 1": "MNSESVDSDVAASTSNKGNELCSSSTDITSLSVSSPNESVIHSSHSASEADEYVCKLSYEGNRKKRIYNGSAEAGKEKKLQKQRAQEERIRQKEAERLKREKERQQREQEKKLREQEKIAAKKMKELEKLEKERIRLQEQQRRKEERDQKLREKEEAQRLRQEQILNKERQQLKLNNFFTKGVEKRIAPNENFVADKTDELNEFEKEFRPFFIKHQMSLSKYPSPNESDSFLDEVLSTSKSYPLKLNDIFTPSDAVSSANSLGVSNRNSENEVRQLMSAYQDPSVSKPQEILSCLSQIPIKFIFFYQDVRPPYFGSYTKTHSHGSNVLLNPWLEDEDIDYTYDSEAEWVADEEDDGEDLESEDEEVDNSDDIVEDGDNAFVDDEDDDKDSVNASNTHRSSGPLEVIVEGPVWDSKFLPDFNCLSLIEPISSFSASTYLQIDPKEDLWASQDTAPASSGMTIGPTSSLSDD", "T3 sequence 2": "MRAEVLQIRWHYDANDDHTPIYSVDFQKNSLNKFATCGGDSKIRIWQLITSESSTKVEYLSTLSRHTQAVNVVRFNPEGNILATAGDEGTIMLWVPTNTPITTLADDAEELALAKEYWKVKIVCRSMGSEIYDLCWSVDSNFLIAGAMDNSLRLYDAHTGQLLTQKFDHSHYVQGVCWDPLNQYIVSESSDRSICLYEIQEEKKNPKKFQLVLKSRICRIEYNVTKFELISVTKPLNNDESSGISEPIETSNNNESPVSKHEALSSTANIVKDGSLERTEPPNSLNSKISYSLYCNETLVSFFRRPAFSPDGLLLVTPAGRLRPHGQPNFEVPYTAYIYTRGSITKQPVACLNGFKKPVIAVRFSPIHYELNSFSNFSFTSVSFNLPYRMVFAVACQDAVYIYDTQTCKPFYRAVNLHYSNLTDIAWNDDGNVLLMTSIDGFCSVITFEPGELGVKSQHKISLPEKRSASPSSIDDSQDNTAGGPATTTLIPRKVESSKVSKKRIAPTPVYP", "T3 sequence 3": "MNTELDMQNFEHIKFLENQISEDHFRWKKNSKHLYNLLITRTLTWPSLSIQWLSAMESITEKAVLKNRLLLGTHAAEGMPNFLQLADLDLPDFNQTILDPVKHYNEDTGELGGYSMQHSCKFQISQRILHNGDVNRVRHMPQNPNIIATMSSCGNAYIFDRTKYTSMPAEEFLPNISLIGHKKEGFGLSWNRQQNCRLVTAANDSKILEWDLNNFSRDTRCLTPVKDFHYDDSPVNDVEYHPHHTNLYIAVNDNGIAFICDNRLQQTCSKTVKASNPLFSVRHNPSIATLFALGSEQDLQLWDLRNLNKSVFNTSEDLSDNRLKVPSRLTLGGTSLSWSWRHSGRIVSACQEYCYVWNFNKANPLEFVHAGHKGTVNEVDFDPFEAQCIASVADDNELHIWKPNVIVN"}},
  "data": [
    {"binder": "B1", "values": [
      {"measurement": "apparent K (half saturation)", "setting": "Pcf1-PIP*;Pcf2;Pcf3", "result": "700 ± 100", "unit": "nM"},
      {"measurement": "binding result", "setting": "Pcf1_WHD", "result": "no binding"},
      {"measurement": "apparent K (half saturation)", "setting": "Pcf1-ΔWHD;Pcf2;Pcf3", "result": "700 ± 100", "unit": "nM"}
    ]}
  ]
}
